Values of other authors in publication PMC4496705.

Key:
SKIP (Homo sapiens) = SKIP (Homo sapiens) (UniProt Q13573); test: SPR
[1] = molecular target: hPrp4 peptide (Homo sapiens) (UniProt O43172); test: ITC
Chain of UniProt O43172 (O43172 whole entry): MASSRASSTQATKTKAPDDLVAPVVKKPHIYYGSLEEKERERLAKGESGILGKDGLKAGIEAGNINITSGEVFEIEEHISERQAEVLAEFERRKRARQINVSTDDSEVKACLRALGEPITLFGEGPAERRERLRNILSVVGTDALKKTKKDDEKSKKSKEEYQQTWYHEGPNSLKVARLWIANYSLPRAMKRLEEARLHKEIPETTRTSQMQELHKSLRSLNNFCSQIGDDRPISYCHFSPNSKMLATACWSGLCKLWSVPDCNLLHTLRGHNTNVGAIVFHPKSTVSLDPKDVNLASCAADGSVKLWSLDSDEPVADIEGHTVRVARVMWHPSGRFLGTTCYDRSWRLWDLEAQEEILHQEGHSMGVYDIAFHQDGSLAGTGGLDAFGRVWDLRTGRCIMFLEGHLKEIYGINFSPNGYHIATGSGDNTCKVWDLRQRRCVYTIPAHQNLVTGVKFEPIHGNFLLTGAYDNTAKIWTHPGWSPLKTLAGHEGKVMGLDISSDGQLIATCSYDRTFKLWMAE

Chain of UniProt Q13573 (Q13573 2-536): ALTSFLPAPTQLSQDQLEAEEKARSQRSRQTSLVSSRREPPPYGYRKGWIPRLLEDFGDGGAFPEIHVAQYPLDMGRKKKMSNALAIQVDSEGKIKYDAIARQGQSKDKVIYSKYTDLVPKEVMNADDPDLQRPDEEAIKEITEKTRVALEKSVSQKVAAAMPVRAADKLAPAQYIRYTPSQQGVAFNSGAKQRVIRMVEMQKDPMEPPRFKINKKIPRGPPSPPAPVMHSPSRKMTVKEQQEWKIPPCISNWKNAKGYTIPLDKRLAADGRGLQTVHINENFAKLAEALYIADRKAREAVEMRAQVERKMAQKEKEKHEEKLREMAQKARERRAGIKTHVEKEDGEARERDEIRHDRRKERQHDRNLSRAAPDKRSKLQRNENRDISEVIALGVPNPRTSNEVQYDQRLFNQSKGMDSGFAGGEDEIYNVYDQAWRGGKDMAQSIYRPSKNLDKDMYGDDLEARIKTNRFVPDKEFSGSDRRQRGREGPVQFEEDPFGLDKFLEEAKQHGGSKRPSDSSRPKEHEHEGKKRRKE

Kd (SKIP (Homo sapiens)) [nM] | Kd [1] [nM] | Substance
125 |  | PPIL1 (from UniProt Q9Y3C6)
 | 1970 | PPIH (from UniProt O43447)
